# Experimental data from the RNAGym collection of RNA variant scans (doi:10.7554/elife.80360).
# B1: Twister Ribozyme (parent)
# chain: AACACUGCCAAUGCCGGUCCCAAGCCCGGAUAAAAGUGGAGGGGGCGG
# Variants of: B1
# Experiment: self-cleavage, relative activity (ratio to wild type); higher = more cleavage; co-transcriptional
row,Variant,self-cleavage
1,GACACUGCCAAUGCCGGUCCCAAGCCCGGGUAAAAGUGGAGGGGGCGG [A1G A30G],0.376
2,GCCACUGCCAAUGCCGGUCCCAAGCCCGGAUAAAAGUGGAGGGGGCGG [A1G A2C],1.43
3,GUCACUGCCAAUGCCGGUCCCAAGCCCGGAUAAAAGUGGAGGGGGCGG [A1G A2U],0.19
4,CACACUGCCAAUGCCGGUCCCAAGCCCGGAUAAAAGUGGCGGGGGCGG [A1C A40C],0.186
5,CACACUGCCAAUGCCGGUCCCAAGCCCGGAUAAAAGUGGGGGGGGCGG [A1C A40G],0.117
6,CACACUGCCAAUGCCGGUCCCAAGACCGGAUAAAAGUGGAGGGGGCGG [A1C C25A],0.148
7,CACACUGCCAAUGCCUGUCCCAAGCCCGGAUAAAAGUGGAGGGGGCGG [A1C G16U],0.189
8,CACACUGCCAAUGCCCGUCCCAAGCCCGGAUAAAAGUGGAGGGGGCGG [A1C G16C],0.192
9,CUCACUGCCAAUGCCGGUCCCAAGCCCGGAUAAAAGUGGAGGGGGCGG [A1C A2U],0.346
10,CCCACUGCCAAUGCCGGUCCCAAGCCCGGAUAAAAGUGGAGGGGGCGG [A1C A2C],1.36
11,CGCACUGCCAAUGCCGGUCCCAAGCCCGGAUAAAAGUGGAGGGGGCGG [A1C A2G],1.25
12,CACACUGCCAAUUCCGGUCCCAAGCCCGGAUAAAAGUGGAGGGGGCGG [A1C G13U],0.207
13,CACACUGCCAAUCCCGGUCCCAAGCCCGGAUAAAAGUGGAGGGGGCGG [A1C G13C],0.116
14,GACACUGCCAAUGCCGGUCCUAAGCCCGGAUAAAAGUGGAGGGGGCGG [A1G C21U],0.146
15,GACACUGCCAAUGCCGGUCCGAAGCCCGGAUAAAAGUGGAGGGGGCGG [A1G C21G],0.0325
16,GACACUGCCAUUGCCGGUCCCAAGCCCGGAUAAAAGUGGAGGGGGCGG [A1G A11U],0.47
17,GACACUGCCCAUGCCGGUCCCAAGCCCGGAUAAAAGUGGAGGGGGCGG [A1G A10C],0.532
18,GACACUGCCAAUGCCGGUCCCAAGCCCGGAUAAAAGUGGGGGGGGCGG [A1G A40G],0.227
19,CACACUGCCAAUGCCGGUCCCAAGCCCGGACAAAAGUGGAGGGGGCGG [A1C U31C],0.141
20,CACACUGCCAAUGCCGGUCCCCAGCCCGGAUAAAAGUGGAGGGGGCGG [A1C A22C],0.134
21,CACACUGCCAAUGCCGCUCCCAAGCCCGGAUAAAAGUGGAGGGGGCGG [A1C G17C],0.145
22,CACACUGCCAAUGCCGGUCCCAUGCCCGGAUAAAAGUGGAGGGGGCGG [A1C A23U],0.184
23,CACACUGCCAAUGCCGGUCCCACGCCCGGAUAAAAGUGGAGGGGGCGG [A1C A23C],0.12
24,CACACUGCCAAUGCCGGUCCCAGGCCCGGAUAAAAGUGGAGGGGGCGG [A1C A23G],0.145
25,CACACUGCCAAUGCCGGUCCCAAGCCCGGAUAAAAGUGGAGGGGGCGU [A1C G48U],0.212
26,CACACUGCAAAUGCCGGUCCCAAGCCCGGAUAAAAGUGGAGGGGGCGG [A1C C9A],0.221
27,CACACUGCUAAUGCCGGUCCCAAGCCCGGAUAAAAGUGGAGGGGGCGG [A1C C9U],0.174

row,Variant,self-cleavage
1,CACACUGCCAAUGCCGGUCCCAAGCCCGGAUAAAAGUGGAGGGGGAGG [A1C C46A],0.148
2,CACACUGCCAAUGCCGGUCCCAAGCCCGGCUAAAAGUGGAGGGGGCGG [A1C A30C],0.199
3,CACACUGCCAAUGCCGGUCCCAAGCCCGGUUAAAAGUGGAGGGGGCGG [A1C A30U],0.177
4,CACACUGCCAAUGCGGGUCCCAAGCCCGGAUAAAAGUGGAGGGGGCGG [A1C C15G],0.187
5,CACACUGCCAAUGCCGGUACCAAGCCCGGAUAAAAGUGGAGGGGGCGG [A1C C19A],0.123
6,CACACUGCCAAUGCCGGUUCCAAGCCCGGAUAAAAGUGGAGGGGGCGG [A1C C19U],0.205
7,GAAACUGCCAAUGCCGGUCCCAAGCCCGGAUAAAAGUGGAGGGGGCGG [A1G C3A],0.349
8,GACAUUGCCAAUGCCGGUCCCAAGCCCGGAUAAAAGUGGAGGGGGCGG [A1G C5U],0.328
9,GACAAUGCCAAUGCCGGUCCCAAGCCCGGAUAAAAGUGGAGGGGGCGG [A1G C5A],0.224
10,GACACUGACAAUGCCGGUCCCAAGCCCGGAUAAAAGUGGAGGGGGCGG [A1G C8A],0.22
11,CACUCUGCCAAUGCCGGUCCCAAGCCCGGAUAAAAGUGGAGGGGGCGG [A1C A4U],0.116
12,GACACUGCCAAUGCCGGUCCCAAGCCCGGAUAAACGUGGAGGGGGCGG [A1G A35C],0.359
13,CACACUGCCUAUGCCGGUCCCAAGCCCGGAUAAAAGUGGAGGGGGCGG [A1C A10U],0.153
14,CACACUGCCGAUGCCGGUCCCAAGCCCGGAUAAAAGUGGAGGGGGCGG [A1C A10G],0.133
15,CACACUGCCAAUGCCGGUCCCAAGCCCGGAUAAAAGUGGAGGGCGCGG [A1C G44C],0.162
16,CACACUGCCAAUGCCGGUCCCAAGCCCGGAUAAAAGUGGAGGGUGCGG [A1C G44U],0.133
17,CACACUGCCAAUGCCGGUCCCAAGCCCGGAUAAAAGUGGAGGGAGCGG [A1C G44A],0.176
18,GACACUGCCAAUGCCGGUCCCAUGCCCGGAUAAAAGUGGAGGGGGCGG [A1G A23U],0.296
19,GACACUGCCAAUGCCGGUCCCAGGCCCGGAUAAAAGUGGAGGGGGCGG [A1G A23G],0.213
20,GACACUGCGAAUGCCGGUCCCAAGCCCGGAUAAAAGUGGAGGGGGCGG [A1G C9G],0.315
21,GACACUGCUAAUGCCGGUCCCAAGCCCGGAUAAAAGUGGAGGGGGCGG [A1G C9U],0.259
22,CACACUGCCAAUGCCGGUCCGAAGCCCGGAUAAAAGUGGAGGGGGCGG [A1C C21G],0.0972
23,CACACUGCCAAUGCCGGUCCAAAGCCCGGAUAAAAGUGGAGGGGGCGG [A1C C21A],0.154
24,CACACUGCCAAUGCCGGUCCUAAGCCCGGAUAAAAGUGGAGGGGGCGG [A1C C21U],0.125
25,CACACUGCCAAUGCCGGUCCCAAGCCCGGAUAAAAGUGGAGGGGGCCG [A1C G47C],0.199
26,GACUCUGCCAAUGCCGGUCCCAAGCCCGGAUAAAAGUGGAGGGGGCGG [A1G A4U],0.235
27,GACCCUGCCAAUGCCGGUCCCAAGCCCGGAUAAAAGUGGAGGGGGCGG [A1G A4C],0.0744
